These results are taken from paper PMC11272076 (Journal of Experimental Botany, 2024).

Experiment [1] addresses T1, CLuc–CML24 (Arabidopsis thaliana, UniProt P25070 1-161).
T1 sequence: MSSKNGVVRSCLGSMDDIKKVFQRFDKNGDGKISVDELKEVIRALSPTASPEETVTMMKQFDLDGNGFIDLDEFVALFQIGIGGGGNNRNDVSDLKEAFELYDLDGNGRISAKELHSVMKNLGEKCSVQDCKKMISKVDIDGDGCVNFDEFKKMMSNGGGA
Kind of experiment: split reporter.

Experiment [2] addresses dansylated CaM (petunia, UniProt P62199 1-149, covalent dansyl label (site not stated)). In words: steady-state dansyl fluorescence spectroscopy.
Experiment [3] concerns the target T2, dansylated CML13 (Arabidopsis thaliana, UniProt Q94AZ4 1-148, covalent dansyl label (site not stated)).
T2 sequence: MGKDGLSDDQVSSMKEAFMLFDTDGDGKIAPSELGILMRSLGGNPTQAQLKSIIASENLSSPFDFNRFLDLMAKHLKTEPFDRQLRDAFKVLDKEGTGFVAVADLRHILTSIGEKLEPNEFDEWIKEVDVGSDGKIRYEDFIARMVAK
In words: steady-state dansyl fluorescence spectroscopy.

Experiment [4] concerns the target T3, dansylated CML14 (Arabidopsis thaliana, UniProt Q8VZ50 1-148, covalent dansyl label (site not stated)).
T3 sequence: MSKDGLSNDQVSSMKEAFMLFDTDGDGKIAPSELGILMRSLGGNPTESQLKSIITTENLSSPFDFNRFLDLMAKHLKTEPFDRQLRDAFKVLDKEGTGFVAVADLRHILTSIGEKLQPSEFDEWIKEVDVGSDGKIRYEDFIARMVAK
In words: steady-state dansyl fluorescence spectroscopy.

The target in experiment [5] is T4, CLuc–CML13 (Arabidopsis thaliana, UniProt Q94AZ4 1-148).
T4 sequence: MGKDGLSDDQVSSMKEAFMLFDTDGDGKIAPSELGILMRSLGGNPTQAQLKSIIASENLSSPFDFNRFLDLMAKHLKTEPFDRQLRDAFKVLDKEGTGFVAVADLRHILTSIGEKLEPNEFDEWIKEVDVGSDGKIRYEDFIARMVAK
Kind of experiment: split reporter.

In experiment [6] the target is T5, CLuc–CML14 (Arabidopsis thaliana, UniProt Q8VZ50 1-148).
T5 sequence: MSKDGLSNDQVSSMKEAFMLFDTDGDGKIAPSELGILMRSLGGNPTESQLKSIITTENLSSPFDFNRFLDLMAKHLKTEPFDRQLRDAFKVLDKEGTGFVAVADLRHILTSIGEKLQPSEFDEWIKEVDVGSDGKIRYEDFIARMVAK
Kind of experiment: split reporter.

B1: myosin ATM2 neck region (residues 878–967), NLuc fusion (domain or fragment)
chain: RKKVLQGIVGLQKHFRGHLSRAYFQNMRKVTLVLQSYIRGENARRLFDTEAKFHADSVSEASTDELSAVIHLQSAVRGWLARKHFNSMQR
As for B1, the “fold signal above background (CML42 control)” value (“fold signal above background” below) in experiment [1] is around 2 fold.

B2: ATM1-IQ1 synthetic peptide (peptide)
peptide: LHGILRVQSSFRGYQARCLLKEL
For B2, the binding result in experiment [2], in experiment [3] and in experiment [4] was “binds” each time.

B3: myosin VIII-A neck region (residues 828–930), NLuc fusion (domain or fragment)
chain: RNRTLHGILRLQSYFRGHQARCRLKELKTGITILQSFVRGEKMRKEYTELLQRHRASAAIQSHVKRRIASQQYKATVDASAVIQSAIRGELVRRCAGDIGWLS
As for B3, the “fold signal above the CML42 control” value in experiment [5] and in experiment [6] was around 200 fold each time. The “fold signal above background” value in experiment [1] is around 2 fold.

B4: myosin ATM1 neck region (residues 848–943), NLuc fusion (domain or fragment)
chain: RTLHGILRVQSSFRGYQARCLLKELKRGISILQSFVRGEKIRKEFAELRRRHKAAATIQSQVKSKIARIQYKGIADASVVIQSAIRGWLVRRCSGD
With B4, the “fold signal above the CML42 control” value in experiment [5] and in experiment [6] was around 35 fold in each case. Also, in experiment [1], the “fold signal above background” value is around 2 fold.

B5: ATM2-IQ1 synthetic peptide (peptide)
peptide: LQGIVGLQKHFRGHLSRAYFQNM
For the molecule B5, the binding result in experiment [2] is recorded as “binds”.
